For test [1], the system named is mice submitted to DSS-induced colitis. Put plainly: DSS-induced colitis model in mice. In kind it is in vivo, mouse (C57BL/6JRj). The note with it: purified AADAT intraperitoneally. The procedure:
C57BL/6JRj from Janvier lab, 7 weeks old, were housed in our specific pathogen free animal facility at IERP (INRA, Jouy en Josas, France). Five to ten female mice per group were used in all experiment, were maintained in a temperature controlled (23° C.) facility with a strict 12 h light/dark cycles and were given free access to food and water. After one acclimation week, we changed water with DSS 2% (MP Biomedical) during 7 days (day 0 to day 7), and a
recovery period was practiced until day 12 (during 5 days). Body weight loss and DAI (disease activity index) were performed daily. After 12 days the samples were harvested.
Colon distal part (cut in three parts) was harvested at day 12 after DSS model and put directly in PFA (Rothi®—Histofix 4%) during 48 h and transferred in ethanol 70% until the standard pre-fixation automat and paraffin embedded. HES coloration was practiced on 5Im cut.
Data were analyzed using Prism version 7 (Graphpad Software, San Diego, USA). The non-parametric Mann Withney test or the parametric one-way ANOVA tests with multiple Bonferroni's comparison tests were performed. Values are expressed as mean±SEM. Statistical significance was defined at a p-value ****<0.0001, ***<0.001, **<0.01, *<0.05.

Test [2] concerns kynurenine (KYNU) and 3-hydroxykynurenin, substrates of AADAT. Nature of the test: AADAT activity test (disappearance of kynurenine/3-hydroxykynurenin; production of KYNA and XANA in vitro). As to conditions: 15 min, KYNU 1000 μM, FIG. 4F. It counts as biochemical. The procedure:
KAT activity may be assessed by any method known by the skilled person. For instance, KAT activity could be assessed as described in the experimental section, i.e. an assay based on the disappearance of kynurenine and/or 3-hydroxykynurenin. Briefly, a reaction mixture (50 μL final volume) containing 10 mM L-kynurenine or 3-hydroxykynurenin, 2 mM α-oxoglutarate, 40 μM PLP (pyridoxal 5′-phosphate) and 0 or 1 μL of the protein to be tested prepared in buffer 100 mM potassium phosphate (pH 7.4), is incubated at 37° C. for 15 min. The reaction is stopped by the addition of an equal volume of 30% acetic acid. The supernatant of the reaction mixture, obtained by centrifugation at 3000 g for 10 min at 4° C., is mixed equally with Ehrlich's solution and incubated 15 min at room temperature to have a colorimetric reaction. In parallel, a standard range of kynurenine or 3-hydroxykynurenin from 0 μM to 1000 μM is made under the same conditions. The amount of kynurenine or 3-hydroxykynurenin present in the sample is measured with a spectrophotometer at an OD of 492 nm and calculated using the standard range. […]
The activity test is based on the disappearance of kynurenine and 3-hydroxykynurenin which are substrates of AADAT. […] The amount of kynurenine or 3-hydroxykynurenin present in the sample was measured with a spectrophotometer at an OD of 492 nm and calculated using the standard range (FIG. 4E).

Where [3] appears, read: 10, 1 and 0.1 μL per day and per mouse.

B1: AADAT: recombinant murine Alpha-Aminoadipate AminoTransferase (SEQ ID NO:13) expressed in E. coli and purified by affinity chromatography (protein, listed as Mus musculus)
chain: MNYSRFLTATSLARKPSPIRTTADILSKAPKTLISLAPGSPNPSMFPFKSAAFTVENGSTIRFEDDLIKRALQYSPSYGIPELLSWLKQFQVKLHNPPTVNYPPNQGQMDLCITSGCQDGLCKAFEMLINPGDTILVNEPLFPGTLYAMKPLGCNIINVPSDEHGIIPEGLKKILSQWKPEDSKDPTKKTPKFLYTVPNGNNPTGNSLTGDRKKEIYELARKYDFLIIEDDPYYFLQFSKPWEPTFLSMDVDGRVIRADTFSKTVSSGLRVGFMTGPKTLIQNIVLHTQVSSVHACTLSQLMILQLLHQWGEEGFLAHIDRTIDFYKNQRDSILAAADKWLRGLAEWHVPKAGMFLWIKVKGISDTKQLIEEKAIEREVLLVPGNGFFIDGSAPTSFFRASFSLATPAQMDTAFQRLAQLIKESL
As for B1, the “protective effect at the two lower doses” value in test [1] (1 and 0.1 μL per day and per mouse) is on record as “protective effect is also seen”. Besides, in test [1] (setting [3]), the clinical score result was “protection, with a dose effect”; the histological score entry is “protection, with a dose effect”; the weight loss entry was “protection, with a dose effect”. Also, the colon length result in test [1] (10, 1 and 0.1 μL per day and per mouse, day 12) was “protection, with a dose effect”. In addition, the “transformation of KYNU into KYNA and XANA” value in test [2] is on record as “A dose effect can be observed”.

These data come from patent US20240408183A1, “KYNURENINE AMINOTRANSFERASE AND PRODUCTS THEREOF FOR THE TREATMENT OF INFLAMMATORY BOWEL DISEASES” (Institut National De Recherche Pour L'Agriculture, …, priority 2021, published 2024).
